Laboratory results as given in PMC9675756.

Tests used:
[1] = target: A3G-CTD2 (catalytically active), crystal and NMR construct (human) (UniProt Q9HC16); assay: competitive inhibition of deamination, real-time 1H NMR; settings: N at position 6 = 2'-deoxy-zebularine (replaces target C); hydrated to 4-(R)-hydroxy-3,4-dihydro form in the active enzyme; DTT, 0.002% Tween 20, 50 nM protein, RED-tris-NTA dye, 23 C; NMR inhibition: 50 mM NaPO4 pH 6.5, 100 mM NaCl, 0.00
[2] = target: A3G-CTD2 (catalytically active soluble variant), MST construct (human) (UniProt Q9HC16); assay: MST; settings: 23 C, apparent Kd, active enzyme hydrates dZ, N at position 6 = 2'-deoxy-zebularine (replaces target C), hydrated to 4-(R)-hydroxy-3,4-dihydro form in the active enzyme, MST: 20 mM Bis-Tris pH 6.5, 100 mM NaCl, 1 mM DTT, 0.002% Tween 20, 50 nM protein, RED-tris-NTA dye, NMR inhibition: 50 mM NaPO4 pH 6.5, 100 mM NaCl …
[3] = target: A3G-CTD2* (catalytically inactive), MST construct E259A (human) (UniProt Q9HC16); assay: MST; settings: N at position 6 = 2'-deoxy-zebularine (replaces target C); hydrated to 4-(R)-hydroxy-3,4-dihydro form in the active enzyme; MST: 20 mM Bis-Tris pH 6.5, 100 mM NaCl, 1 mM DTT, 0.002% Tween 20, 50 nM protein, RED-tris-NTA dye, 23 C; NMR inhibition: 50 mM NaPO4 pH 6.5, 100 mM NaCl …
Sequence of A3G-CTD2* (catalytically inactive), MST construct E259A (human) (Q9HC16 191-384 E259A): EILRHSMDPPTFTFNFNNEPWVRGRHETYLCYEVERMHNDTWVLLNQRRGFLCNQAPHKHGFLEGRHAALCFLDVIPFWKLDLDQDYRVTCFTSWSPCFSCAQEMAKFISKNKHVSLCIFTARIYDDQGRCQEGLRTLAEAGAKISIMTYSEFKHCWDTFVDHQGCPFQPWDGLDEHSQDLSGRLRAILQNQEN

Sequence of A3G-CTD2 (catalytically active), crystal and NMR construct (human) (Q9HC16 191-384): as the sequence (Q9HC16 191-384 E259A) above, with A69E counted along it

“AATCCNAAA [5'-AATCCdZAAA (dZ-ssDNA inhibitor)]” was tested, and the Ki [1] was 3.07 µM, the Kd [2] was 0.27 µM and the Kd [3] was 14.3 µM.
